Test results: patent US20240075134A1 (Seagen, published 2024)

What was measured:
[1] = molecular target: T1, human CD40 on the surface of PBMCs (human, UniProt P25942 21-277); experiment: cell-based or functional assay
[2] = molecular target: T2, human FcγRIIIa, low affinity (158F) form, on CHO cells (human, UniProt P08637 17-254); experiment: flow cytometry, biotinylated antibody on CHO cells expressing FcγRIIIa 158F
T2 construct: whole, on cells; Allotype with F at position 158 as printed; also called FcγRIIIa 158F

[3] = molecular target: T1, human CD40 on the surface of PBMCs; experiment: cell-based or functional assay; remark: listed apart in the source
murine CD40 = molecular target: T3, murine CD40 (murine, UniProt P27512 20-193, limits assumed); experiment: not described
T3 sequence (looked up): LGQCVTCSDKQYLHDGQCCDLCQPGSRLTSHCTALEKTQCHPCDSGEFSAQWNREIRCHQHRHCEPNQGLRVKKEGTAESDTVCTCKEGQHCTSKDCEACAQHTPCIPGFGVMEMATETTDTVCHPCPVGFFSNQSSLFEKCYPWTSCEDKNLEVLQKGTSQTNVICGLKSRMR

[4] = molecular target: T4, human FcγRIIIa, high affinity (158V) form, on CHO cells (human, UniProt P08637 17-254); experiment: flow cytometry, biotinylated antibody on CHO cells expressing FcγRIIIa 158V
T4 construct: whole, on cells; Position 158 probably counts on the mature protein; also called FcγRIIIa 158V
T4 sequence (P08637 17-254 F176V): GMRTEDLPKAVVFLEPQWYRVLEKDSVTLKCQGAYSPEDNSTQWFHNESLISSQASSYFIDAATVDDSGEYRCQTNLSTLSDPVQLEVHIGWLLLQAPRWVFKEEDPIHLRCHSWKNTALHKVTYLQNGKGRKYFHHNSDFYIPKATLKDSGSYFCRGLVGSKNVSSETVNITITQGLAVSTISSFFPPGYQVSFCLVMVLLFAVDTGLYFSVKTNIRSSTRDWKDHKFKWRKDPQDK

T1 sequence (P25942 21-277): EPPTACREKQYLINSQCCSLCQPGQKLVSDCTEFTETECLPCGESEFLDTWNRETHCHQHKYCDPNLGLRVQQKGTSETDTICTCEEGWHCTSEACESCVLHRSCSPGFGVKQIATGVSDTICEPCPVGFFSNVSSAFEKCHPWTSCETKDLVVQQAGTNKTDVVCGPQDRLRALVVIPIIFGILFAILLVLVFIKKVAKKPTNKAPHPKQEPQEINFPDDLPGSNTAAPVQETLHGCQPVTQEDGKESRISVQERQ
T2 sequence (P08637 17-254): as the sequence (P08637 17-254 F176V) above, with V160F counted along it

B1: SEA-CD40 (non-fucosylated humanized S2C6 antibody) (antibody, human IgG1, kappa)
heavy: not shown
light: DIQMTQSPSSLSASVGDRVTITCRSSQSLVHSNGNTFLHWYQQKPGKAPKLLIYTVSNRFSGVPSRFSGSGSGTDFTLTISSLQPEDFATYFCSQTTHVPWTFGQGTKVEIKRTVAAPSVFIFPPSDEQLKSGTASVVCLLNNFYPREAKVQWKVDNALQSGNSQESVTEQDSKDSTYSLSSTLTLSKADYEKHKVYACEVTHQGLSSPVTKSFNRGEC
notes: also called SEA40; non-fucosylated hS2C6; copies: 2 + 2
MHCII surface expression on PBMCs, ratio to SEA-h00; SEA-CD40 0.0001 µg/mL, 6 hrs [1]: 0.85 fold
MHCII surface expression on PBMCs, ratio to SEA-h00; SEA-CD40 0.0001 µg/mL, 24 hrs [1]: 1.05 fold
MHCII surface expression on PBMCs, ratio to SEA-h00; SEA-CD40 0.0001 µg/mL, 48 hrs [1]: 0.99 fold
MHCII surface expression on PBMCs, ratio to SEA-h00; SEA-CD40 0.001 µg/mL, 6 hrs [1]: 1 fold
MHCII surface expression on PBMCs, ratio to SEA-h00; SEA-CD40 0.001 µg/mL, 24 hrs [1]: 1.07 fold
MHCII surface expression on PBMCs, ratio to SEA-h00; SEA-CD40 0.001 µg/mL, 48 hrs [1]: 1.1 fold
MHCII surface expression on PBMCs, ratio to SEA-h00; SEA-CD40 0.01 µg/mL, 6 hrs [1]: 0.9 fold
MHCII surface expression on PBMCs, ratio to SEA-h00; SEA-CD40 0.01 µg/mL, 24 hrs [1]: 1.21 fold
MHCII surface expression on PBMCs, ratio to SEA-h00; SEA-CD40 0.01 µg/mL, 48 hrs [1]: 1.38 fold
MHCII surface expression on PBMCs, ratio to SEA-h00; SEA-CD40 0.1 µg/mL, 6 hrs [1]: 0.9 fold
MHCII surface expression on PBMCs, ratio to SEA-h00; SEA-CD40 0.1 µg/mL, 24 hrs [1]: 1.19 fold
MHCII surface expression on PBMCs, ratio to SEA-h00; SEA-CD40 0.1 µg/mL, 48 hrs [1]: 1.5 fold
MHCII surface expression on PBMCs, ratio to SEA-h00; SEA-CD40 1 µg/mL, 6 hrs [1]: 1.14 fold
MHCII surface expression on PBMCs, ratio to SEA-h00; SEA-CD40 1 µg/mL, 24 hrs [1]: 1.76 fold
MHCII surface expression on PBMCs, ratio to SEA-h00; SEA-CD40 1 µg/mL, 48 hrs [1]: 1.57 fold
MHCII surface expression on PBMCs, ratio to SEA-h00; SEA-CD40 10 µg/mL, 6 hrs [1]: 1.1 fold
MHCII surface expression on PBMCs, ratio to SEA-h00; SEA-CD40 10 µg/mL, 24 hrs [1]: 1.62 fold
MHCII surface expression on PBMCs, ratio to SEA-h00; SEA-CD40 10 µg/mL, 48 hrs [1]: 2.1 fold
MHCII surface expression on PBMCs, ratio to SEA-h00; SEA-CD40 100 µg/mL, 6 hrs [1]: 1.13 fold
MHCII surface expression on PBMCs, ratio to SEA-h00; SEA-CD40 100 µg/mL, 24 hrs [1]: 1.64 fold
MHCII surface expression on PBMCs, ratio to SEA-h00; SEA-CD40 100 µg/mL, 48 hrs [1]: 2.1 fold
Kd [2]: 27.5 nM
EC50 of CD86 upregulation on PBMCs (24 hr) [3]: 0.14 µg/mL
EC50 of MHCI upregulation on PBMCs (48 hr) [3]: 0.011 µg/mL
EC50 of MHCII upregulation on PBMCs (24 hr) [3]: 0.41 µg/mL
binding result (murine CD40): no binding
Kd [4]: 5.2 nM

B2: dacetuzumab (fucosylated humanized S2C6) (antibody, human IgG1, kappa)
heavy: not shown
light: B1 light
notes: also called SGN-40; SGN40; copies: 2 + 2
Kd [2]: 303 nM
Kd [4]: 37.9 nM
